Laboratory results taken from patent US20170037129A1.

Assays:
[1] = molecular target: endogenous human CD147 expressed on human cancer cells (human) (UniProt P35613); test: flow cytometry on PC-3 cells
[2] = molecular target: endogenous human CD147 expressed on human cancer cells (human) (UniProt P35613); test: flow cytometry on A549 cells
[3] = molecular target: endogenous human CD147 expressed on human cancer cells (human) (UniProt P35613); test: flow cytometry on K562 cells

EC50 [1] [nM] | EC50 [2] [nM] | EC50 [3] [nM] | Binder
> 100 | 35.9 | 0.6 | C4sh1A6 (antibody, V domains shown) VH: QVQLVESGGGVVQPGRSLRLSCAASGFTFSTYAMHWVRQAPGRGLEWVAGISYDGSNKYHADPVKGRFTISRDNSKNTLYLQMNNLRVEDSAVYYCAGDRSGGLDVWGQGTTVTVSS VL: DIVMTQSPSSLSASVGDRVTITCRASQGISNSLAWYQQKSGKAPKLLLYAASGLESGVPSRFSGSGSGTDYTLTISSLQPEDFATYYCQQSYSMPLTFGGGTKVEIK
4.5 | 3.73 | 1.55 | C4sh1B2 (antibody, V domains shown) VH: QMQLVQSGAEVKKPGASVKVSCKASGYTFTGYYIHWVRQAPGQGLEWMGWINPNSGGTIYAQKFQGRVTMTRDTSISTAYMELSRLRSDDTAVYYCARGSTNFDSWGQGTLVTVSS VL: QAGLTQPPSASGSPGQSVTISCTGTSSDVGGYNSVSWYQQHPGKAPKLMIYDVSNRPSGVSNRFSGSKSGNTASLTISGLQAEDEADYYCSSYINSGTLVFGGGTKLTVL
> 100 | 83.8 | 168 | C4R1B2 (antibody, V domains shown) VH: QVQLVQSGAEVKKPGASVKVSCKASGYGFTSYAIHWLRQAPGQRLEWMGWINPGNGNTKYSQKFQGRVTITRDTSATTAYMELTSLRSEDSDTAVYYCARDLDGGSFDHWGQGTLVTVSS VL: QSVVTQPASVSGSPGQSITISCTGTSSDVGSYNLVSWYQQHPGKAPKLMIYDVTNRPSGVSNRFSGSKSGNTASLTISGLQAEDEADYYCSSYTRSSTYVFGTGTKVTVL
